Experimental data as given in PMC3792040, “Nectin-3 (CD113) Interacts with Nectin-2 (CD112) to Promote Lymphocyte Transendothelial Migration” (PLoS ONE, 2013).

B1: Nec2-Fc (Fc fusion, human, UniProt Q92692 32-360, looked up)
chain: QDVRVQVLPEVRGQLGGTVELPCHLLPPVPGLYISLVTWQRPDAPANHQNVAAFHPKMGPSFPSPKPGSERLSFVSAKQSTGQDTEAELQDATLALHGLTVEDEGNYTCEFATFPKGSVRGMTWLRVIAKPKNQAEAQKVTFSQDPTTVALCISKEGRPPARISWLSSLDWEAKETQVSGTLAGTVTVTSRFTLVPSGRADGVTVTCKVEHESFEEPALIPVTLSVRYPPEVSISGYDDNWYLGRTDATLSCDVRSNPEPTGYDWSTTSGTFPTSAVAQGSQLVIHAVDSLFNTTFVCTVTNAVGMGRAEQVIFVRETPNTAGAGATGG
notes: Nectin-2 (CD112), human, soluble form fused to Fc; Probably the extracellular domain; also called Nectin-2; CD112; source: COS cells, transfected, purified from supernatants on Affi-Gel protein A
B2: Nec1-Fc (Fc fusion, human, UniProt Q15223 31-355, looked up)
chain: QVVQVNDSMYGFIGTDVVLHCSFANPLPSVKITQVTWQKSTNGSKQNVAIYNPSMGVSVLAPYRERVEFLRPSFTDGTIRLSRLELEDEGVYICEFATFPTGNRESQLNLTVMAKPTNWIEGTQAVLRAKKGQDDKVLVATCTSANGKPPSVVSWETRLKGEAEYQEIRNPNGTVTVISRYRLVPSREAHQQSLACIVNYHMDRFKESLTLNVQYEPEVTIEGFDGNWYLQRMDVKLTCKADANPPATEYHWTTLNGSLPKGVEAQNRTLFFKGPINYSLAGTYICEATNPIGTRSGQVEVNITEFPYTPSPPEHGRRAGPVPTA
notes: Nectin-1 (CD111), human, soluble form fused to Fc; Probably the extracellular domain; also called Nectin-1; CD111; source: COS cells, transfected, purified from supernatants on Affi-Gel protein A
B3: PVR-Fc (Fc fusion, human, UniProt P15151 21-343, looked up)
chain: WPPPGTGDVVVQAPTQVPGFLGDSVTLPCYLQVPNMEVTHVSQLTWARHGESGSMAVFHQTQGPSYSESKRLEFVAARLGAELRNASLRMFGLRVEDEGNYTCLFVTFPQGSRSVDIWLRVLAKPQNTAEVQKVQLTGEPVPMARCVSTGGRPPAQITWHSDLGGMPNTSQVPGFLSGTVTVTSLWILVPSSQVDGKNVTCKVEHESFEKPQLLTVNLTVYYPPEVSISGYDNNWYLGQNEATLTCDARSNPEPTGYNWSTTMGPLPPFAVAQGAQLLIRPVDKPINTTLICNVTNALGARQAELTVQVKEGPPSEHSGISRN
notes: PVR (CD155, Necl-5), human, soluble form fused to Fc; Probably the extracellular domain; also called CD155; Necl-5; source: COS cells, transfected, purified from supernatants on Affi-Gel protein A

Biological target: T1, soluble Nectin-3 (Nec3-Fc) (human, UniProt Q9NQS3 58-404, biotin (the soluble copy in the in vitro binding assay: 'Biotinylated Nec3-Fc'))
T1 construct: Nectin-3 (CD113), human, recombinant soluble form fused to Fc; Probably the extracellular domain; Biotinylated as analyte in the ELISA, not biotinylated when captured in the ELISA or used on cells; also called CD113; source: COS cells, transfected, purified from supernatants on Affi-Gel protein A
Assay: ELISA; Fc proteins (10^-7 M) captured on wells by goat anti-human Fc, 2 h 37 °C; free anti-Fc blocked with human immunoglobulin; biotinylated Nec3-Fc (10^-7 M) incubated 2 h at 37 °C in the absence of Ca2+; streptavidin peroxidase, ABTS
Settings: both partners purified

T1 sequence (Q9NQS3 58-404): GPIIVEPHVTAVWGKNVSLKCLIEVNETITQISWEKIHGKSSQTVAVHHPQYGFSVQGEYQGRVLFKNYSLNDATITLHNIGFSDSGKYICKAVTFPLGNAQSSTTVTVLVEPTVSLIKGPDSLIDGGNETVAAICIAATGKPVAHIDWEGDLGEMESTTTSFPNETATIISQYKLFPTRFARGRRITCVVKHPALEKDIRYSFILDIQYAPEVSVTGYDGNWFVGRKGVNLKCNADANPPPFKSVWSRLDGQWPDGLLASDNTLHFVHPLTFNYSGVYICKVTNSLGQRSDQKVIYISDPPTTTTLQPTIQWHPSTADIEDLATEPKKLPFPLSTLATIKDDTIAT

| Binder | binding result |
| --- | --- |
| B1 | binds |
| B2 | binds |
| B3 | binds |
